Columns and labels:
Assay in all cases: Kd (EC50 corrected by depletion factor)
RBMS3 = target: T1, RBMS3 (UniProt Q6XE24)
T1 sequence: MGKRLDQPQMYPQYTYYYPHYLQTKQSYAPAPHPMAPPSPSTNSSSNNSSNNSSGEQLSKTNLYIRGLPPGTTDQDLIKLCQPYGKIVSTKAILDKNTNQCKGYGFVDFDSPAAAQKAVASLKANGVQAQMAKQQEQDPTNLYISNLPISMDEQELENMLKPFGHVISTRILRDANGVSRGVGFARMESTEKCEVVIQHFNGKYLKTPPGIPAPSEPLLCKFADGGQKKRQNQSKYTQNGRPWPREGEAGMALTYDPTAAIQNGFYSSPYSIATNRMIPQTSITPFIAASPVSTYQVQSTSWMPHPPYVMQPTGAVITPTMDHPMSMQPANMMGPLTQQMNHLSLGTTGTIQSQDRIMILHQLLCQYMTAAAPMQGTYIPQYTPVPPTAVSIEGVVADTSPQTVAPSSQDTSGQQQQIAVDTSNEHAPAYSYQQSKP
Method in brief: (§1)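 Free RNA oligos (0 nM to 30 μM) competed for 1 h at 4°C in HEK293-FT lysate (2.5 mg protein/well) before a 30 min, 4°C pulldown with the same oligos on NHS-Sepharose beads. Bound proteins were quantified by label-free LC-MS/MS and normalised to the control. Kd was found by multiplying EC50, from a four-parameter log-logistic fit, by a protein-dependent depletion factor.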

ZCCHC24 = ZCCHC24 (UniProt Q8N2G6)
Method in brief: as §1

ISY1 = target: T2, ISY1 (UniProt Q9ULR0)
T2 sequence: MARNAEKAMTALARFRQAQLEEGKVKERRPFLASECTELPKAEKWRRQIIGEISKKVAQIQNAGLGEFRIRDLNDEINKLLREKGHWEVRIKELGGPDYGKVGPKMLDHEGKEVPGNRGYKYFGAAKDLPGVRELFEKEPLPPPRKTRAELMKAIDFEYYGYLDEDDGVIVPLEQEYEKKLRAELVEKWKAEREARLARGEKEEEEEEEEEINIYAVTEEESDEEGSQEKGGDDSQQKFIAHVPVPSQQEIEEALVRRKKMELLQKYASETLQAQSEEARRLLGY
Method in brief: as §1

CPSF3 = target: T3, CPSF3 (UniProt Q9UKF6)
T3 sequence: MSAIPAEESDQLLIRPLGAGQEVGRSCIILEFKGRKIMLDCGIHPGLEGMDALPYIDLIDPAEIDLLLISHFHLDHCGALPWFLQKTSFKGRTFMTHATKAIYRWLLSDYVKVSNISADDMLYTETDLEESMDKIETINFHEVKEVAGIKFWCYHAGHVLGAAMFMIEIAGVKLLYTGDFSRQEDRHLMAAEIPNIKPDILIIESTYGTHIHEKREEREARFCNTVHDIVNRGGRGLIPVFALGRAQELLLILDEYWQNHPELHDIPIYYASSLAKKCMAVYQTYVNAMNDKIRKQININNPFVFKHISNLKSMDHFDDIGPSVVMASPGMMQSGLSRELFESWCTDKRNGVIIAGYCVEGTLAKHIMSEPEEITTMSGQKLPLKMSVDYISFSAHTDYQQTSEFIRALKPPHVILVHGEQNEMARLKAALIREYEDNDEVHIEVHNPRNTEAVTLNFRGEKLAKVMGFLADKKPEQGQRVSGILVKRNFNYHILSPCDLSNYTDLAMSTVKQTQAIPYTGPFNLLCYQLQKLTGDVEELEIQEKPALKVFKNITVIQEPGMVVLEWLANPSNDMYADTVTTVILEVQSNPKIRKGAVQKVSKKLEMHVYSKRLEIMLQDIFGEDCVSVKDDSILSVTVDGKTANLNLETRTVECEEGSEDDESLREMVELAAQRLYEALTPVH
Method in brief: as §1

HNRNPD = target: T4, HNRNPD (UniProt Q14103)
T4 sequence: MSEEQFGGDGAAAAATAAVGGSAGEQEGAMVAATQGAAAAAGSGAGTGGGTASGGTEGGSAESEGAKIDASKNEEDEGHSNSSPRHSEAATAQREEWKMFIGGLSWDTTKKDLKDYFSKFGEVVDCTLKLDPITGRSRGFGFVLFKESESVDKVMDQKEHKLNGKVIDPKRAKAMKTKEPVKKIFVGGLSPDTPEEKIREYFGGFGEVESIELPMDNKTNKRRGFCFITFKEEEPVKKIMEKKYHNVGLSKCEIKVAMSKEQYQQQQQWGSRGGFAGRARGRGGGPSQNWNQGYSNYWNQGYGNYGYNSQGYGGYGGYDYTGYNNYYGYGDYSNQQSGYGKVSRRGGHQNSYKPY
Method in brief: as §1

MEX3B = target: T5, MEX3B (UniProt Q6ZN04)
T5 sequence: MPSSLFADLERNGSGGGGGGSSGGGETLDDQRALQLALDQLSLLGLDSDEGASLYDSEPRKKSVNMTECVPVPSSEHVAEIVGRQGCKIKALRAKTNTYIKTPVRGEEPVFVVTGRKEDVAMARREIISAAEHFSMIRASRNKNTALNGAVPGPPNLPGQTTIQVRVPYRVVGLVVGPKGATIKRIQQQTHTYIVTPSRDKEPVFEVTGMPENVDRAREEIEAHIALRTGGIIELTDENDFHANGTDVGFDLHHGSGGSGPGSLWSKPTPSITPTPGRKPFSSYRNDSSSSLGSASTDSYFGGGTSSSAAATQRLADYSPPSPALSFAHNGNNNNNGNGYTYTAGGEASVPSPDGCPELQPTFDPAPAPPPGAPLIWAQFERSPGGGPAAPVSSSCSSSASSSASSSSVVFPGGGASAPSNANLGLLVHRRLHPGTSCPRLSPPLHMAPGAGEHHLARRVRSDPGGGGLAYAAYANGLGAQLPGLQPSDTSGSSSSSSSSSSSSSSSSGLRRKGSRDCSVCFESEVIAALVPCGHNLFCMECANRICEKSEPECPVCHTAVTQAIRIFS
Method in brief: as §1

Chain of ZCCHC24 (Q8N2G6 whole entry): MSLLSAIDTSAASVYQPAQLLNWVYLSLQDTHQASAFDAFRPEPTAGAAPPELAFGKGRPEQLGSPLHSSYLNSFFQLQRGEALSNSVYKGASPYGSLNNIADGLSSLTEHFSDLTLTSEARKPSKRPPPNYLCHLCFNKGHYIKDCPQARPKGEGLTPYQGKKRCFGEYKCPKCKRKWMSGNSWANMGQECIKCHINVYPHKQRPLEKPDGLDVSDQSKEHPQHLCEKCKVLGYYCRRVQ

Row | Sequence | Kd (RBMS3) [nM] | Kd (ZCCHC24) [nM] | Kd (ISY1) [nM] | Kd (CPSF3) [nM] | Kd (HNRNPD) [nM] | Kd (MEX3B) [nM]
1 | AAUAAA | 153 | 207 | 198 | 5.97 | 764 | 327
2 | UAUUUAU | 97.3 | 1910 | 414 | 270 | 583 | 220

From the supplement of paper PMC6379048
